Laboratory results reported in ChEMBL document CHEMBL2074234, “Functional expression of the canalicular bile salt export pump of human liver” (Gastroenterology, 2002).

Assays:
Type in all cases: functional, cell membranes, Membrane vesicle
[1] = substrate: C[C@H](CCC(=O)NCCS(=O)(=O)O)[C@H]1CC[C@H]2[C@@H]3[C@@H](O)C[C@@H]4C[C@H](O)CC[C@]4(C)[C@H]3CC[C@]12C; experiment: (§1) TP_TRANSPORTER: uptake in membrane vesicles isolated from Bsep-expressing Sf9 cells
[2] = substrate: C[C@H](CCC(=O)NCC(=O)O)[C@H]1CC[C@H]2[C@@H]3[C@H](O)C[C@@H]4C[C@H](O)CC[C@]4(C)[C@H]3C[C@H](O)[C@]12C; experiment: as §1
[3] = substrate: C[C@H](CCC(=O)NCCS(=O)(=O)O)[C@H]1CC[C@H]2[C@@H]3[C@H](O)C[C@@H]4C[C@H](O)CC[C@]4(C)[C@H]3CC[C@]12C; experiment: as §1

B1: Bile salt export pump (Homo sapiens) (protein)
chain: MSDSVILRSIKKFGEENDGFESDKSYNNDKKSRLQDEKKGDGVRVGFFQLFRFSSSTDIWLMFVGSLCAFLHGIAQPGVLLIFGTMTDVFIDYDVELQELQIPGKACVNNTIVWTNSSLNQNMTNGTRCGLLNIESEMIKFASYYAGIAVAVLITGYIQICFWVIAAARQIQKMRKFYFRRIMRMEIGWFDCNSVGELNTRFSDDINKINDAIADQMALFIQRMTSTICGFLLGFFRGWKLTLVIISVSPLIGIGAATIGLSVSKFTDYELKAYAKAGVVADEVISSMRTVAAFGGEKREVERYEKNLVFAQRWGIRKGIVMGFFTGFVWCLIFLCYALAFWYGSTLVLDEGEYTPGTLVQIFLSVIVGALNLGNASPCLEAFATGRAAATSIFETIDRKPIIDCMSEDGYKLDRIKGEIEFHNVTFHYPSRPEVKILNDLNMVIKPGEMTALVGPSGAGKSTALQLIQRFYDPCEGMVTVDGHDIRSLNIQWLRDQIGIVEQEPVLFSTTIAENIRYGREDATMEDIVQAAKEANAYNFIMDLPQQFDTLVGEGGGQMSGGQKQRVAIARALIRNPKILLLDMATSALDNESEAMVQEVLSKIQHGHTIISVAHRLSTVRAADTIIGFEHGTAVERGTHEELLERKGVYFTLVTLQSQGNQALNEEDIKDATEDDMLARTFSRGSYQDSLRASIRQRSKSQLSYLVHEPPLAVVDHKSTYEEDRKDKDIPVQEEVEPAPVRRILKFSAPEWPYMLVGSVGAAVNGTVTPLYAFLFSQILGTFSIPDKEEQRSQINGVCLLFVAMGCVSLFTQFLQGYAFAKSGELLTKRLRKFGFRAMLGQDIAWFDDLRNSPGALTTRLATDASQVQGAAGSQIGMIVNSFTNVTVAMIIAFSFSWKLSLVILCFFPFLALSGATQTRMLTGFASRDKQALEMVGQITNEALSNIRTVAGIGKERRFIEALETELEKPFKTAIQKANIYGFCFAFAQCIMFIANSASYRYGGYLISNEGLHFSYVFRVISAVVLSATALGRAFSYTPSYAKAKISAARFFQLLDRQPPISVYNTAGEKWDNFQGKIDFVDCKFTYPSRPDSQVLNGLSVSISPGQTLAFVGSSGCGKSTSIQLLERFYDPDQGKVMIDGHDSKKVNVQFLRSNIGIVSQEPVLFACSIMDNIKYGDNTKEIPMERVIAAAKQAQLHDFVMSLPEKYETNVGSQGSQLSRGEKQRIAIARAIVRDPKILLLDEATSALDTESEKTVQVALDKAREGRTCIVIAHRLSTIQNADIIAVMAQGVVIEKGTHEELMAQKGAYYKLVTTGSPIS
[1]
  Km: 11.9 µM
[2]
  Km: 11.1 µM
[3]
  Km: 4.8 µM
